From doi:10.1101/2019.12.13.867358 (bioRxiv, 2019)

Biological target: T1, Smc4 (S. cerevisiae, UniProt Q12267 1-1418)
T1 sequence (looked up): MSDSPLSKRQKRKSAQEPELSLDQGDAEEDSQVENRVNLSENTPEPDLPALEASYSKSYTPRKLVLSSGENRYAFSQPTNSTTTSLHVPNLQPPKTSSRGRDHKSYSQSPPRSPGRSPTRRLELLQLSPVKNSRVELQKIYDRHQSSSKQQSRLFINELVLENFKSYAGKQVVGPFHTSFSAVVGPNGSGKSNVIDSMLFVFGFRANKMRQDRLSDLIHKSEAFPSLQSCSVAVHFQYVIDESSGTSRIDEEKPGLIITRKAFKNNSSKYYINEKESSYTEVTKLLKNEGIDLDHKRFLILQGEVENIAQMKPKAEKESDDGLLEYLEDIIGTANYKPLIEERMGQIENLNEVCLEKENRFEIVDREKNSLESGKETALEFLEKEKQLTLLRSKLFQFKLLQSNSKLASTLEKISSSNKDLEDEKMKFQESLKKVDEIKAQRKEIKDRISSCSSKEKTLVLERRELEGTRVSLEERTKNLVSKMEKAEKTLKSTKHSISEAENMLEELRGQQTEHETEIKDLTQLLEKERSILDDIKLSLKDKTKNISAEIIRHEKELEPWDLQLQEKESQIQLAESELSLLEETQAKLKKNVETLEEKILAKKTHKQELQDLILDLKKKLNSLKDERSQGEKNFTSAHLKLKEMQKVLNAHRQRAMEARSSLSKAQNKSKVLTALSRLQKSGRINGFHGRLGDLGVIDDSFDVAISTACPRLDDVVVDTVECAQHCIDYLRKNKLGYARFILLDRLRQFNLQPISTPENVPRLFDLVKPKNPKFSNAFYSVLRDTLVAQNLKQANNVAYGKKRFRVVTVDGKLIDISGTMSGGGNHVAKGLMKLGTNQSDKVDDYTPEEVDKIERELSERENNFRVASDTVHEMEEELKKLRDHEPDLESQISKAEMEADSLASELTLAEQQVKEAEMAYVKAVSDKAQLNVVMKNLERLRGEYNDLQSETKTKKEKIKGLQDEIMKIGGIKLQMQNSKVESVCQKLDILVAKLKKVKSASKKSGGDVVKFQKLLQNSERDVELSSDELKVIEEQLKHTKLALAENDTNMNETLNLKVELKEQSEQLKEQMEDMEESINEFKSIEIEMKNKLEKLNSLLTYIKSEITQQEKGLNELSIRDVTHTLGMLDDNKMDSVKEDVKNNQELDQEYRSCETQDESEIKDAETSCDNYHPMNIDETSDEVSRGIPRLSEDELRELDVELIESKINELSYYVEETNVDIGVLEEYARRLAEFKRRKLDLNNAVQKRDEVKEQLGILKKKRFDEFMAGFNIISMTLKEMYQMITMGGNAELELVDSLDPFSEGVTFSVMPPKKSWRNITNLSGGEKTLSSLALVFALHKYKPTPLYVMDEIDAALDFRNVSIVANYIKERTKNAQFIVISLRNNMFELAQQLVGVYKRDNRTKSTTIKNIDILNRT
Assay: AFM imaging

B1: Smc2 (natural protein, S. cerevisiae, UniProt P38989 1-1170, looked up)
chain: MKVEELIIDGFKSYATRTVITDWDPQFNAITGLNGSGKSNILDAICFVLGIASMSTVRASSLQDLIYKRGQAGVTKASVTIVFDNTDKSNSPIGFTNSPQISVTRQVVLGGTSKYLINGHRAPQQSVLQLFQSVQLNINNPNFLIMQGKITKVLNMKPSEILSLIEEAAGTKMFEDRREKAERTMSKKETKLQENRTLLTEEIEPKLEKLRNEKRMFLEFQSTQTDLEKTERIVVSYEYYNIKHKHTSIRETLENGETRMKMLNEFVKKTSEEIDSLNEDVEEIKLQKEKELHKEGTISKLENKENGLLNEISRLKTSLSIKVENLNDTTEKSKALESEIASSSAKLIEKKSAYANTEKDYKMVQEQLSKQRDLYKRKEELVSTLTTGISSTGAADGGYNAQLAKAKTELNEVSLAIKKSSMKMELLKKELLTIEPKLKEATKDNELNVKHVKQCQETCDKLRARLVEYGFDPSRIKDLKQREDKLKSHYYQTCKNSEYLKRRVTNLEFNYTKPYPNFEASFVHGVVGQLFQIDNDNIRYATALQTCAGGRLFNVVVQDSQTATQLLERGRLRKRVTIIPLDKIYTRPISSQVLDLAKKIAPGKVELAINLIRFDESITKAMEFIFGNSLICEDPETAKKITFHPKIRARSITLQGDVYDPEGTLSGGSRNTSESLLVDIQKYNQIQKQIETIQADLNHVTEELQTQYATSQKTKTIQSDLNLSLHKLDLAKRNLDANPSSQIIARNEEILRDIGECENEIKTKQMSLKKCQEEVSTIEKDMKEYDSDKGSKLNELKKELKLLAKELEEQESESERKYDLFQNLELETEQLSSELDSNKTLLHNHLKSIESLKLENSDLEGKIRGVEDDLVTVQTELNEEKKRLMDIDDELNELETLIKKKQDEKKSSELELQKLVHDLNKYKSNTNNMEKIIEDLRQKHEFLEDFDLVRNIVKQNEGIDLDTYRERSKQLNEKFQELRKKVNPNIMNMIENVEKKEAALKTMIKTIEKDKMKIQETISKLNEYKRETLVKTWEKVTLDFGNIFADLLPNSFAKLVPCEGKDVTQGLEVKVKLGNIWKESLIELSGGQRSLIALSLIMALLQFRPAPMYILDEVDAALDLSHTQNIGHLIKTRFKGSQFIVVSLKEGMFANANRVFRTRFQDGTSVVSIM
binding result: binds
